Results: patent publication US20090041768A1 (published 2009)

Biological target: FcRn
Assay: Biacore FcRn binding

Chain of FcRn (chain, as listed by the source, chain 1 of 2): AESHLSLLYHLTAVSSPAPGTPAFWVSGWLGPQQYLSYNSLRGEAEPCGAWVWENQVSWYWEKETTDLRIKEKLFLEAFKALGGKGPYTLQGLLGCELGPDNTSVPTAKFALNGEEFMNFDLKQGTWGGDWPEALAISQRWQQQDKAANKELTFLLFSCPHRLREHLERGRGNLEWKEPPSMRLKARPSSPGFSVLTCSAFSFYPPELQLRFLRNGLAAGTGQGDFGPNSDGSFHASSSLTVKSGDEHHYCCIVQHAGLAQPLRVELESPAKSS
Chain of FcRn (chain, as listed by the source, chain 2 of 2): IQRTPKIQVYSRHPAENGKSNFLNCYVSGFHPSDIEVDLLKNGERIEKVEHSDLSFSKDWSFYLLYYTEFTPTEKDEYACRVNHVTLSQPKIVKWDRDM

B1: Fc-loop TN8-19-07 (clone #6951) (Fc fusion)
chain: MDKTHTCPPCPAPELLGGPSVFLFPPKPKDTLMISRTPEVTCVVVDVSHEDPEVKFNWYVDGVEVHNAKTKPREEQYNSTYRVVSVLTVLHQDWLNGKEYKCKVSNKALPAPIEKTISKAKGQPREPQVYTLPPSRDELGGLADHGQCIRWPWMCPPEGWEGGTKNQVSLTCLVKGFYPSDIAVEWESNGQPENNYKTTPPVLDSDGSFFLYSKLTVDKSRWQQGNVFSCSVMHEALHNHYTQKSLSLSPGK
notes: also called Fc-loop-myo7; myostatin loop peptibody
EC50: ~680 nM
